Each sequence was assayed on Escherichia coli TOP10 (assay: shrunken log2 fold change of peptide-encoding DNA abundance (4.5 h post-induction vs induction); higher = less antimicrobial activity (less host growth inhibition)). Conditions: time post-induction: 4.5 h; library: site-saturation at positions 5, 18, 19, 20.
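Note: peptides expressed intracellularly from a pBAD plasmid library in pooled LB shake-flask culture, induced with 0.3% L-arabinose, DNA abundance read by NGS, three biological replicates, DESeq2 with apeglm shrinkage.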

RRIRYRPPRLPRPRPRPRYQPRP and RRIRYRPPRLPRPRPRPRYTPRP are within 0.2 log units of each other in “shrunken log2 fold change” value: -0.0935 for the first, -0.0817 for the second.

RRIRYRPPRLPRPRPRPSASPRP and RRIRYRPPRLPRPRPRPSCHPRP are within 0.2 log units of each other in “shrunken log2 fold change” value: -0.071 for the first, -0.0195 for the second.

RRIRYRPPRLPRPRPRPSCIPRP and RRIRYRPPRLPRPRPRPSEKPRP are within 0.2 log units of each other in “shrunken log2 fold change” value: -0.118 for the first, -0.116 for the second.

Going from RRIRYRPPRLPRPRPRPSFAPRP to RRIRYRPPRLPRPRPRPSFCPRP, the “shrunken log2 fold change” value falls from -0.332 to -0.793.

First: RRIRYRPPRLPRPRPRPSFHPRP
Second: RRIRYRPPRLPRPRPRPSGAPRP
The “shrunken log2 fold change” value of the first is lower: -1.01 for the first, -0.299 for the second.

Compared with RRIRYRPPRLPRPRPRPSGSPRP, RRIRYRPPRLPRPRPRPSHFPRP is lower in “shrunken log2 fold change” value: -0.0607 for the first, -0.411 for the second.

First: RRIRYRPPRLPRPRPRPSHHPRP
Second: RRIRYRPPRLPRPRPRPSHSPRP
The “shrunken log2 fold change” value of the first is lower: -1.2 for the first, -0.0971 for the second.

Going from RRIRYRPPRLPRPRPRPSHVPRP to RRIRYRPPRLPRPRPRPSIGPRP, the “shrunken log2 fold change” value rises from -1.58 to -0.0122.

RRIRYRPPRLPRPRPRPSIIPRP and RRIRYRPPRLPRPRPRPSKGPRP are within 0.2 log units of each other in “shrunken log2 fold change” value: -0.236 for the first, -0.203 for the second.

RRIRYRPPRLPRPRPRPSKNPRP and RRIRYRPPRLPRPRPRPSLFPRP are within 0.2 log units of each other in “shrunken log2 fold change” value: -0.722 for the first, -0.657 for the second.

RRIRYRPPRLPRPRPRPSLMPRP and RRIRYRPPRLPRPRPRPSNLPRP are within 0.2 log units of each other in “shrunken log2 fold change” value: -0.556 for the first, -0.729 for the second.

RRIRYRPPRLPRPRPRPSNQPRP and RRIRYRPPRLPRPRPRPSPEPRP are within 0.2 log units of each other in “shrunken log2 fold change” value: -0.273 for the first, -0.458 for the second.

RRIRYRPPRLPRPRPRPSSCPRP and RRIRYRPPRLPRPRPRPSSEPRP are within 0.2 log units of each other in “shrunken log2 fold change” value: -0.101 for the first, 0.0163 for the second.

RRIRYRPPRLPRPRPRPSSPPRP and RRIRYRPPRLPRPRPRPSTCPRP are within 0.2 log units of each other in “shrunken log2 fold change” value: -0.631 for the first, -0.687 for the second.

Going from RRIRYRPPRLPRPRPRPSYSPRP to RRIRYRPPRLPRPRPRPTAAPRP, the “shrunken log2 fold change” value rises from -0.438 to 0.111.

RRIRYRPPRLPRPRPRPTATPRP and RRIRYRPPRLPRPRPRPTAWPRP are within 0.2 log units of each other in “shrunken log2 fold change” value: -0.038 for the first, -0.011 for the second.

Going from RRIRYRPPRLPRPRPRPTAYPRP to RRIRYRPPRLPRPRPRPTCEPRP, the “shrunken log2 fold change” value rises from -0.537 to 0.00952.

Going from RRIRYRPPRLPRPRPRPTDLPRP to RRIRYRPPRLPRPRPRPTDPPRP, the “shrunken log2 fold change” value rises from -0.396 to -0.107.

RRIRYRPPRLPRPRPRPTDWPRP and RRIRYRPPRLPRPRPRPTEHPRP are within 0.2 log units of each other in “shrunken log2 fold change” value: -0.314 for the first, -0.501 for the second.

Going from RRIRYRPPRLPRPRPRPTFAPRP to RRIRYRPPRLPRPRPRPTGAPRP, the “shrunken log2 fold change” value rises from -0.321 to 0.136.

RRIRYRPPRLPRPRPRPTGLPRP and RRIRYRPPRLPRPRPRPTGRPRP are within 0.2 log units of each other in “shrunken log2 fold change” value: -0.101 for the first, 0.0692 for the second.

Compared with RRIRYRPPRLPRPRPRPTHRPRP, RRIRYRPPRLPRPRPRPTHWPRP is higher in “shrunken log2 fold change” value: -0.1 for the first, 0.272 for the second.

Compared with RRIRYRPPRLPRPRPRPTKAPRP, RRIRYRPPRLPRPRPRPTKLPRP is lower in “shrunken log2 fold change” value: -0.0298 for the first, -0.683 for the second.

First: RRIRYRPPRLPRPRPRPTLDPRP
Second: RRIRYRPPRLPRPRPRPTNTPRP
The “shrunken log2 fold change” value of the first is higher: -0.628 for the first, -1.15 for the second.

Compared with RRIRYRPPRLPRPRPRPTPEPRP, RRIRYRPPRLPRPRPRPTQSPRP is lower in “shrunken log2 fold change” value: 0.264 for the first, 0.0623 for the second.

RRIRYRPPRLPRPRPRPTSFPRP and RRIRYRPPRLPRPRPRPTTSPRP are within 0.2 log units of each other in “shrunken log2 fold change” value: -0.255 for the first, -0.382 for the second.

Going from RRIRYRPPRLPRPRPRPTTYPRP to RRIRYRPPRLPRPRPRPTVIPRP, the “shrunken log2 fold change” value rises from -0.941 to -0.146.

First: RRIRYRPPRLPRPRPRPTVPPRP
Second: RRIRYRPPRLPRPRPRPTYPPRP
The “shrunken log2 fold change” value of the first is lower: -0.382 for the first, 0.105 for the second.

Going from RRIRYRPPRLPRPRPRPTYSPRP to RRIRYRPPRLPRPRPRPVANPRP, the “shrunken log2 fold change” value rises from -0.443 to -0.0575.

Going from RRIRYRPPRLPRPRPRPVCIPRP to RRIRYRPPRLPRPRPRPVCVPRP, the “shrunken log2 fold change” value rises from -1.24 to -0.339.

Going from RRIRYRPPRLPRPRPRPVCWPRP to RRIRYRPPRLPRPRPRPVDCPRP, the “shrunken log2 fold change” value falls from 0.196 to -0.103.

RRIRYRPPRLPRPRPRPVDGPRP and RRIRYRPPRLPRPRPRPVEHPRP are within 0.2 log units of each other in “shrunken log2 fold change” value: -0.0183 for the first, -0.0137 for the second.

First: RRIRYRPPRLPRPRPRPVEVPRP
Second: RRIRYRPPRLPRPRPRPVFQPRP
The “shrunken log2 fold change” value of the first is higher: -0.282 for the first, -0.503 for the second.

Going from RRIRYRPPRLPRPRPRPVGKPRP to RRIRYRPPRLPRPRPRPVHHPRP, the “shrunken log2 fold change” value rises from -1.51 to -0.211.

RRIRYRPPRLPRPRPRPVLCPRP and RRIRYRPPRLPRPRPRPVLKPRP are within 0.2 log units of each other in “shrunken log2 fold change” value: -0.272 for the first, -0.122 for the second.

Compared with RRIRYRPPRLPRPRPRPVMSPRP, RRIRYRPPRLPRPRPRPVMWPRP is higher in “shrunken log2 fold change” value: -0.233 for the first, 3.51 for the second.

Compared with RRIRYRPPRLPRPRPRPVNIPRP, RRIRYRPPRLPRPRPRPVSDPRP is higher in “shrunken log2 fold change” value: -0.617 for the first, -0.379 for the second.

Compared with RRIRYRPPRLPRPRPRPVSWPRP, RRIRYRPPRLPRPRPRPVTLPRP is lower in “shrunken log2 fold change” value: 0.106 for the first, -0.713 for the second.

Going from RRIRYRPPRLPRPRPRPVTPPRP to RRIRYRPPRLPRPRPRPVTQPRP, the “shrunken log2 fold change” value rises from -0.118 to 3.05.

RRIRYRPPRLPRPRPRPVTWPRP and RRIRYRPPRLPRPRPRPVVKPRP are within 0.2 log units of each other in “shrunken log2 fold change” value: -0.207 for the first, -0.0513 for the second.

Compared with RRIRYRPPRLPRPRPRPVYCPRP, RRIRYRPPRLPRPRPRPVYYPRP is lower in “shrunken log2 fold change” value: -0.416 for the first, -0.68 for the second.

RRIRYRPPRLPRPRPRPWELPRP and RRIRYRPPRLPRPRPRPWGEPRP are within 0.2 log units of each other in “shrunken log2 fold change” value: 0.0358 for the first, -0.102 for the second.

RRIRYRPPRLPRPRPRPWIDPRP and RRIRYRPPRLPRPRPRPWIVPRP are within 0.2 log units of each other in “shrunken log2 fold change” value: -0.274 for the first, -0.219 for the second.

RRIRYRPPRLPRPRPRPWKDPRP and RRIRYRPPRLPRPRPRPWMDPRP are within 0.2 log units of each other in “shrunken log2 fold change” value: -0.0122 for the first, -0.159 for the second.

RRIRYRPPRLPRPRPRPWNVPRP and RRIRYRPPRLPRPRPRPWPEPRP are within 0.2 log units of each other in “shrunken log2 fold change” value: -0.0218 for the first, -0.0592 for the second.

RRIRYRPPRLPRPRPRPWRFPRP and RRIRYRPPRLPRPRPRPWRQPRP are within 0.2 log units of each other in “shrunken log2 fold change” value: -0.00218 for the first, -0.00152 for the second.

RRIRYRPPRLPRPRPRPWSDPRP and RRIRYRPPRLPRPRPRPWSMPRP are within 0.2 log units of each other in “shrunken log2 fold change” value: -0.0783 for the first, -0.221 for the second.

First: RRIRYRPPRLPRPRPRPWWMPRP
Second: RRIRYRPPRLPRPRPRPWWSPRP
The “shrunken log2 fold change” value of the first is lower: -0.452 for the first, -0.0117 for the second.

Compared with RRIRYRPPRLPRPRPRPWYVPRP, RRIRYRPPRLPRPRPRPYAGPRP is higher in “shrunken log2 fold change” value: -1.13 for the first, -0.00131 for the second.

RRIRYRPPRLPRPRPRPYDFPRP and RRIRYRPPRLPRPRPRPYDRPRP are within 0.2 log units of each other in “shrunken log2 fold change” value: -0.138 for the first, -0.039 for the second.

Going from RRIRYRPPRLPRPRPRPYGFPRP to RRIRYRPPRLPRPRPRPYHYPRP, the “shrunken log2 fold change” value falls from -0.182 to -0.556.

RRIRYRPPRLPRPRPRPYIIPRP and RRIRYRPPRLPRPRPRPYIMPRP are within 0.2 log units of each other in “shrunken log2 fold change” value: -0.241 for the first, -0.223 for the second.

Going from RRIRYRPPRLPRPRPRPYKNPRP to RRIRYRPPRLPRPRPRPYKVPRP, the “shrunken log2 fold change” value rises from -1.42 to -0.0075.

First: RRIRYRPPRLPRPRPRPYLQPRP
Second: RRIRYRPPRLPRPRPRPYLTPRP
The “shrunken log2 fold change” value of the first is lower: -1.9 for the first, -0.305 for the second.

First: RRIRYRPPRLPRPRPRPYMIPRP
Second: RRIRYRPPRLPRPRPRPYMMPRP
The “shrunken log2 fold change” value of the first is higher: -0.0298 for the first, -0.337 for the second.

First: RRIRYRPPRLPRPRPRPYMNPRP
Second: RRIRYRPPRLPRPRPRPYQDPRP
The “shrunken log2 fold change” value of the first is higher: 0.0271 for the first, -1.1 for the second.

RRIRYRPPRLPRPRPRPYQGPRP and RRIRYRPPRLPRPRPRPYQQPRP are within 0.2 log units of each other in “shrunken log2 fold change” value: 0.00408 for the first, -0.0715 for the second.

Going from RRIRYRPPRLPRPRPRPYREPRP to RRIRYRPPRLPRPRPRPYSCPRP, the “shrunken log2 fold change” value falls from 0.0196 to -0.344.

RRIRYRPPRLPRPRPRPYSQPRP and RRIRYRPPRLPRPRPRPYSTPRP are within 0.2 log units of each other in “shrunken log2 fold change” value: -0.505 for the first, -0.648 for the second.

Compared with RRIRYRPPRLPRPRPRPYTSPRP, RRIRYRPPRLPRPRPRPYVDPRP is higher in “shrunken log2 fold change” value: -0.533 for the first, -0.0075 for the second.

With RRIRYRPPRLPRPRPRPYWTPRP the “shrunken log2 fold change” value was -0.00804.

Reference: the supplement of paper PMC9112550, “Optimization of the antimicrobial peptide Bac7 by deep mutational scanning” (BMC Biology, 2022)
